Data published in patent US20100040616A1 (published 2010).
Numbering of substitutions follows the chain as printed. Each block holds one binder with its values, some of them ahead of it.

Tests used:
[1] = biological target: T1, recombinant human CD127 extracellular domain (CD127 ECD) (human) (UniProt P16871); experiment: SPR (Biacore T100), CD127 ECD amine-coupled on CM5, antibody (supernatant material) as analyte
T1 sequence: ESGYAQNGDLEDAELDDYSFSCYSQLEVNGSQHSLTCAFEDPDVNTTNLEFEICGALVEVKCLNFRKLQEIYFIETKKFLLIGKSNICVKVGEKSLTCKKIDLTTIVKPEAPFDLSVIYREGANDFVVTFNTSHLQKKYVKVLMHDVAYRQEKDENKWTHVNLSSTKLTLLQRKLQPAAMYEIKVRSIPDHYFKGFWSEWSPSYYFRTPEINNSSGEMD

[2] = biological target: T1, recombinant human CD127 extracellular domain (CD127 ECD) (human); experiment: ELISA: recombinant human CD127 ECD coated at 5 ug/ml, 9B7 hybridoma material titrated, HRP goat anti-mouse IgG detection
[3] = biological target: T1, recombinant human CD127 extracellular domain (CD127 ECD) (human); experiment: SPR (Biacore T100, 25 °C), antibody captured on rabbit anti-mouse IgG, CD127 ECD as analyte
[4] = biological target: T1, recombinant human CD127 extracellular domain (CD127 ECD) (human); experiment: blocking of IL-7/IL-7Rα binding; competitor IL-7; method not given
[5] = biological target: T2, human CD127 expressed on cells (CD127-transfected CHO cells; PBMC and CD4+ T cells in functional assays) (human, UniProt P16871 21-459); experiment: Flow cytometry cross-competition on CHO-CD127 cells: unlabelled antibody titrated against fluorescence-labelled BD anti-CD127 antibody (#552853)
T2 construct: The construct transfected into CHO is not described further; also called CHO-CD127; IL-7Rα expressed on CHO
T2 chain: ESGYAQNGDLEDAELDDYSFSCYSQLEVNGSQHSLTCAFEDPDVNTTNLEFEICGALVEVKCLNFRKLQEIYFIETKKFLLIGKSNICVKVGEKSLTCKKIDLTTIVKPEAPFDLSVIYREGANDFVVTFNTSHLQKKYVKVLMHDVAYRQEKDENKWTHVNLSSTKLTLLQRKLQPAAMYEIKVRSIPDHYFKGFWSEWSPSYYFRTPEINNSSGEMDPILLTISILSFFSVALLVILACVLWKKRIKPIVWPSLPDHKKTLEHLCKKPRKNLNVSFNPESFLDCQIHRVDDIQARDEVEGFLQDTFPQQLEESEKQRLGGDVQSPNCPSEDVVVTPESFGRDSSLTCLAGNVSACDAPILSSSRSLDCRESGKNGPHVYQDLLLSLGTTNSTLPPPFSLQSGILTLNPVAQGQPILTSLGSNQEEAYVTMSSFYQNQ
Protocol: CHO-CD127 cells were prepared and washed by cold DPBS for 3 times. […] The antibody mixtures were then incubated with the CHO-CD127 cells for 30 min at 4° C. […] (FIG. 15).

[6] = biological target: T1, recombinant human CD127 extracellular domain (CD127 ECD) (human); experiment: affinity for the IL-7Rα ECD (profile summary; SPR)

Kd [1]: 0.556 nM
EC50 (read off the curve) [2]: 0.6 µg/mL
B1: mAb 9B7 (murine anti-human CD127 monoclonal antibody) (antibody, IgG1, V domains shown)
VH: QVQLQESGPGLVAPSQSLSITCTVSGFSLSRYNVHWVRQPPGKGLEWLGMIWDGGSTDYNSALKSRLSITKDNSKSQVFLKMNSLQTDDTAMYYCARNRYESGMDYWGQGTTVTVSS
VL: DIVMTQTPSSLTVTAGEKVTMSCKSSQSLLNSGNRKNYLTWYQQKPGQSPKLLIYWASTRESGVPDRFTGSGSGTDFTLIISSVQAEDLAVYYCQNDYTYPFTFGSGTKLEIKR

Kd [3]: 3.44 nM
koff [3]: 0.000251 s⁻¹
IC50 [4]: 1.79 µg/mL
B2: mAb 1A11 (murine anti-human CD127 monoclonal antibody) (antibody, mouse IgG1, V domains shown)
VH: EVQLQQSGPELLKPGASMKISCKASGYSFTGYTMNWVKQSHGKNLEWIGLINPYNGVTSYNQKFKGKATLTVAKSSSTAYMELLSLTSEDSAVYYCARGDGNYWYFDVWGAGTTVTVSS
VL: EIVLTQSPAITAASLGQKVTITCSASSSVTYMHWYQQKSGTSPKPWIYEISKLASGVPVRFSGSGSGTSYSLTISSMEAEDAAIYYCQEWNYPYTFGGGTKLEIK

Kd [3]: 15.3 nM
koff [3]: 0.000875 s⁻¹
IC50 [4]: 2.29 µg/mL
B3: mAb GR34 (reverse engineered clone of R34.34) (antibody, mouse IgG1, V domains shown)
VH: B2 VH with L12V, N55S, V57I, K63N, A73D, S85N
VL: B2 VL with V3I, T30S, V59A, E89Y

Kd [3]: 24.4 nM
koff [3]: 0.000436 s⁻¹
kon [3]: 17900 M⁻¹ s⁻¹
IC50 (read off the curve) [5]: ~70 µg/mL
B4: mAb 6C5 (murine anti-human CD127 monoclonal antibody) (antibody, mouse IgG1, V domains shown)
VH: EVKLLESGGGLVQPGGSLKLSCAASGFAFSAYWMSWVRQAPGKGLEWIGEINPDSSTINCTPSLKDKFIISRDNAKNTLSLQMNKVRSEDTALYYCARRLRPFWYFDVWGAGTTVTVSS
VL: DVLMTQTPLSLPVSLGDQASISCRSSQSIVQSNGNTYLEWYLQKPGQSPKLLIYKVSNRFSGVPDRFSGSGSGTDFTLKISRVEAEDLGVYYCFQGSHVPRTFGGGTKLEIK
notes: also called Antibody 6C5

Kd [3]: 7.74 nM
koff [3]: 0.000146 s⁻¹
kon [3]: 18900 M⁻¹ s⁻¹
Kd [6]: 7.99 nM
koff [6]: 0.000334 s⁻¹
IC50 [4]: 1.92 µg/mL
B5: mAb 6A3 (murine anti-human CD127 monoclonal antibody) (antibody, mouse IgG1, V domains shown)
VH: DVQLQESGPGLVKPSQSLSLTCTVTGYSITTDYAWNWIRQFPGNKLEWMGYIFYSGSTTYTPSLKSRISITRDTSKNQFFLQLNSVTTEDTATYYCARGGYDVNYFDYWGQGTTLTVSS
VL: DIQMTQSPASQSASLGESVTITCLASQTIGAWLAWYQQKPGKSPQLLIYAATRLADGVPSRFSGSGSGTKFSFKISSLQAEDFVSYYCQQFFSTPWTFGGGTKLEIK
